Tests used:
[1] = target: GpA G83I TMD (LexA-TMD-MBP chimera); experiment: GALLEX assay (β-gal activity of LexA-TMD-MBP chimera proteins); conditions: n = 3; strong dimerization results in low β-gal activity; parent: est. 20; read off a plot
[2] = target: TLR2 protein of RAW264.7 murine macrophages (mouse (endogenous in RAW264.7)) (UniProt Q9QUN7)
[3] = target: TLR2 protein of RAW264.7 murine macrophages (mouse (endogenous in RAW264.7)) (UniProt Q9QUN7); remark: listed apart in the source
[4] = target: NBD-labelled gp41 TMD peptide (HIV-1); experiment: FRET or BRET; NBD-labelled gp41 TMD or mutant peptide (donor, 0.1 µM) in PC∶Chol 9∶1 LUVs, titrated with Rho-labelled TLR2 TMD peptide at 1∶40, 1∶20, 1∶10 and 1∶1 acceptor∶donor; decrease of donor emission at 530 nm
[5] = target: NBD-labelled gp41 mutant peptide (HIV-1); experiment: as above
[6] = target: LexA-TMD-MBP chimera protein with the TLR2 TMD (GALLEX) (UniProt O60603); experiment: GALLEX assay (β-gal activity of LexA-TMD-MBP chimera proteins); conditions: n = 3; strong dimerization results in low β-gal activity; parent: est. 48; read off a plot
Chain of UniProt O60603 (O60603 21-784, stated change not applied): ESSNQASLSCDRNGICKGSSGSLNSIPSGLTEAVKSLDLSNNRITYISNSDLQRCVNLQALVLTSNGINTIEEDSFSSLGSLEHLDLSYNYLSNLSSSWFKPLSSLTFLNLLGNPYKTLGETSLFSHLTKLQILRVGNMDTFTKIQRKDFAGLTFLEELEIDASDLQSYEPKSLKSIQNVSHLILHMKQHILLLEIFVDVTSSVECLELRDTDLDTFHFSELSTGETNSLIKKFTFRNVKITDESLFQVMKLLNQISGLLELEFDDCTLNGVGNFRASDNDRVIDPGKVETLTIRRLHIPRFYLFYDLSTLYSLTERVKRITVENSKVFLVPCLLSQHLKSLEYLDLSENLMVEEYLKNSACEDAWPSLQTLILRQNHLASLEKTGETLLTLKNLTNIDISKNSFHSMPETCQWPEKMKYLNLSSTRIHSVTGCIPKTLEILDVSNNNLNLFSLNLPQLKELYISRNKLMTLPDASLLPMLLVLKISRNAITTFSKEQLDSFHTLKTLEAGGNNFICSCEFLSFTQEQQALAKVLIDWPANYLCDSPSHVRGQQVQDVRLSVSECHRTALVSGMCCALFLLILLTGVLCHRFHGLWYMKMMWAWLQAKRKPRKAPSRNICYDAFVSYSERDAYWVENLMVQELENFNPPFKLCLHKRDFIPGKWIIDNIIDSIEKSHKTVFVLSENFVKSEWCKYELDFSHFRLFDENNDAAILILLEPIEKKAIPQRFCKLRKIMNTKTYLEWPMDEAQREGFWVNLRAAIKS

Chain of UniProt Q9QUN7 (Q9QUN7 25-784): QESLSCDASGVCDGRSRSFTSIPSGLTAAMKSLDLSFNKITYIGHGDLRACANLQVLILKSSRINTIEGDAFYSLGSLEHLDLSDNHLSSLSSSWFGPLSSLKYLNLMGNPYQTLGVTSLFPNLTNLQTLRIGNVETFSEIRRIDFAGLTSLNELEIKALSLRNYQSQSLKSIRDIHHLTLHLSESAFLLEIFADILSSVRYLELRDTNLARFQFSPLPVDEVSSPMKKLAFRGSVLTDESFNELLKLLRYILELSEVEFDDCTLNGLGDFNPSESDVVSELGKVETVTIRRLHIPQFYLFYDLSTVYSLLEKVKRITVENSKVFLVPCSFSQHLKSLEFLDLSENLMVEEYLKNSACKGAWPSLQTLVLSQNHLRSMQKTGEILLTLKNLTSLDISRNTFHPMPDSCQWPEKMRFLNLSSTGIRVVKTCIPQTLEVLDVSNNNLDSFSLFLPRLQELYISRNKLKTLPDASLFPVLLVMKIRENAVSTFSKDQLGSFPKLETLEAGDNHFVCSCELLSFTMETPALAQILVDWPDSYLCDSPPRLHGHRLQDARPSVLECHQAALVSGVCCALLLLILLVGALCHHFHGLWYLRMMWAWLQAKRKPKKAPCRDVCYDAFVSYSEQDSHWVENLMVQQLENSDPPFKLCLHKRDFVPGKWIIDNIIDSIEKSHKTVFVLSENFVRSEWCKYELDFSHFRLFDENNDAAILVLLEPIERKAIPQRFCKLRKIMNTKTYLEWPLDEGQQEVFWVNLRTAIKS

Substance: LexA-TMD-MBP chimera protein with the Glycophorin A (GpA) TMD (GALLEX) G83I
- response [1]: 100%

Substance: unlabeled WT gp41 TMD peptide
- MCP1 mRNA expression in LTA-activated RAW264.7 cells (real-time PCR), decrease against non-treated cells [2]: 45%
- TNFα mRNA expression in LTA-activated RAW264.7 cells (real-time PCR), decrease against non-treated cells [2]: 72%
- ERK1,2 phosphorylation in RAW264.7 cells 20 minutes after LTA, cells pre-treated with the peptide for 2 hours (decrease of p-ERK band intensity) [3]: > 50%

Substance: Rho-labeled TLR2 TMD peptide
- decrease of the NBD donor emission at 530 nm (FRET) at 1∶1 ratio [4]: > 60%
- decrease of the NBD donor emission at 530 nm (FRET) [5]: < 25%

Substance: LexA-TMD-MBP chimera protein with the gp41 wild type TMD (GALLEX) (from UniProt P04578) gp41 mutant
- response [6]: 68%

From paper PMC4133399
